Experimental findings from PMC2173397 are described below.

This test has as its target T1, Apaf-1 (human (endogenous in HeLa)), O14727.
T1 chain: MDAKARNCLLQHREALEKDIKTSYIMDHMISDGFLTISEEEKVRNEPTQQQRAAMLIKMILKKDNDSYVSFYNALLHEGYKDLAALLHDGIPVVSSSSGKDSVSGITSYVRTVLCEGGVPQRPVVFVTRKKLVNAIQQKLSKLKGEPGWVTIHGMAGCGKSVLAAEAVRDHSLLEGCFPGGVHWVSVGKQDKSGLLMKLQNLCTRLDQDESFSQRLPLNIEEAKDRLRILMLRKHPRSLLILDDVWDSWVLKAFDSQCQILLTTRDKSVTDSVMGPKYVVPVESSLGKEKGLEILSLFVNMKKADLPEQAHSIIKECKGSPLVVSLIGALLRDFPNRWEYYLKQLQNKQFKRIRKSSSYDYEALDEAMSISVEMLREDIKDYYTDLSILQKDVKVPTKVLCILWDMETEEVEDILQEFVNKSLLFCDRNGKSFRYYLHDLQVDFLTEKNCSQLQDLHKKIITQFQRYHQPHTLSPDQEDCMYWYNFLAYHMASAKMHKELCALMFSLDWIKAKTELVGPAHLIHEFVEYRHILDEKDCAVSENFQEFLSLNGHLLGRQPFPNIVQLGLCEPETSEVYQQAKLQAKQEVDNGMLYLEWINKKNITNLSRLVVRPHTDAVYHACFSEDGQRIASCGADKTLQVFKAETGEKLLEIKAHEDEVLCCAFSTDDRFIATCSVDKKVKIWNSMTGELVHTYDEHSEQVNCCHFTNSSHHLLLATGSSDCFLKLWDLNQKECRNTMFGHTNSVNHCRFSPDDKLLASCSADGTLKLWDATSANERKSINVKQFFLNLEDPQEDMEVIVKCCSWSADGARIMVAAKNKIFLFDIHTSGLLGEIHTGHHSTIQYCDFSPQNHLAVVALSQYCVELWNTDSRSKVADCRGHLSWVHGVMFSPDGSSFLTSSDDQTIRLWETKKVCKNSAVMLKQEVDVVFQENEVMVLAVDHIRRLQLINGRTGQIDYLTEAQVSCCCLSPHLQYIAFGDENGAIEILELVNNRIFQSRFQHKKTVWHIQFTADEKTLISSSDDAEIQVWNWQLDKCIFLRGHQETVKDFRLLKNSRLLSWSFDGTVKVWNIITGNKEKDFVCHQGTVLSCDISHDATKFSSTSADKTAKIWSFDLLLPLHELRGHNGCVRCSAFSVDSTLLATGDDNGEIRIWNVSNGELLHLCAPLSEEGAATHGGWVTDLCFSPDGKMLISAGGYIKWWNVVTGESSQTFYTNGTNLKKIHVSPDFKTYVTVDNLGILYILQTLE
Description: SEC. The following applies: remark: other sources report otherwise.

B1: caspase-9, P55211 1-416 (natural protein)
chain: MDEADRRLLRRCRLRLVEELQVDQLWDALLSRELFRPHMIEDIQRAGSGSRRDQARQLIIDLETRGSQALPLFISCLEDTGQDMLASFLRTNRQAAKLSKPTLENLTPVVLRPEIRKPEVLRPETPRPVDIGSGGFGDVGALESLRGNADLAYILSMEPCGHCLIINNVNFCRESGLRTRTGSNIDCEKLRRRFSSLHFMVEVKGDLTAKKMVLALLELAQQDHGALDCCVVVILSHGCQASHLQFPGAVYGTDGCPVSVEKIVNIFNGTSCPSLGGKPKLFFIQACGGEQKDHGFEVASTSPEDESPGSNPEPDATPFQEGLRTFDQLDAISSLPTPSDIFVSYSTFPGFVSWRDPKSGSWYVETLDDIFEQWAHSEDLQSLLLRVANAVSVKGIYKQMPGCFNFLRKKLFFKTS
As for B1, the percent recruited to the high Mr complex is 50%.
